This is an account of results in the supplement of paper PMC10065799, “High-throughput profiling of sequence recognition by tyrosine kinases and SH2 domains using bacterial peptide display” (eLife, 2023).

The subject of series [1] is AncSZ. Briefly: phosphorylation enrichment, bacterial display (enrichment ratio); higher = better substrate or ligand; peptides without Tyr show the background.
Series [2] has as its target EPHB1 (UniProt P54762). Described as above.
Series [3] has as its target EPHB2 (UniProt P29323). The description is as above.
Series [4] has as its target FGFR1 (UniProt P11362). The series is described as above.
Series [5] has as its target FGFR3 (UniProt P22607). Described as above.
Series [6] has as its system Fer (mouse). Described as above.
Series [7] deals with Fes (UniProt P07332). The description is as above.
Chain of Fes (P07332 whole entry, looked up): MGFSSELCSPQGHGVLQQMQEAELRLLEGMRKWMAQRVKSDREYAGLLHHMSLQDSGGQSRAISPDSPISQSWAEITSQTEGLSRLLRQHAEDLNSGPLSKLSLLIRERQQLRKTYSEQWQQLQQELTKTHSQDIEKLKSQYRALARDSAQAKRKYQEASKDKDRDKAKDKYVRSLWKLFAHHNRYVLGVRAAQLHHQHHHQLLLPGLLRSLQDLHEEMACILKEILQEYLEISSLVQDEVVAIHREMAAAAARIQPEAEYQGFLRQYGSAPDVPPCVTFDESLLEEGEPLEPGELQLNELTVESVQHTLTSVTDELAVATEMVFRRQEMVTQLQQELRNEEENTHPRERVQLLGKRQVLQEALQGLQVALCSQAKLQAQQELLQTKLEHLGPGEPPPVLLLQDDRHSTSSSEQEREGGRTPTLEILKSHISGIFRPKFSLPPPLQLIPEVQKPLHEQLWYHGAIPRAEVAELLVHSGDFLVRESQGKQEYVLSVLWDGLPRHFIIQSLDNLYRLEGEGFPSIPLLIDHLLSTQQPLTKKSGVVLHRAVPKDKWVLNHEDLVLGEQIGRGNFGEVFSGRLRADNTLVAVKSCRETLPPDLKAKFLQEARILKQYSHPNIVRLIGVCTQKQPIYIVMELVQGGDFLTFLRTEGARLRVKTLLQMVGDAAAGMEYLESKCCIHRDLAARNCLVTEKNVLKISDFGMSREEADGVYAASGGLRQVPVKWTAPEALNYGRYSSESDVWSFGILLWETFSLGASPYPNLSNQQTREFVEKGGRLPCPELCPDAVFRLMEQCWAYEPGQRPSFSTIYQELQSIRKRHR
In series [8] the target is Fyn (UniProt P06241). The series is described as above.
In series [9] the target is Hck (UniProt P08631). The series is described as above.
Series [10] addresses Jak2 (UniProt O60674). The series is described as above.
In series [11] the target is MERTK (UniProt Q12866). Described as above.
Series [12] has as its system c-Abl (mouse). Described as above.
The subject of series [13] is c-Src. The description is as above.
Series [14] deals with Grb2 SH2 (UniProt P62993). Briefly: SH2 binding enrichment of the phosphorylated peptide, bacterial display (enrichment ratio); higher = better substrate or ligand; peptides without Tyr show the background.
Chain of Grb2 SH2 (P62993 whole entry, looked up): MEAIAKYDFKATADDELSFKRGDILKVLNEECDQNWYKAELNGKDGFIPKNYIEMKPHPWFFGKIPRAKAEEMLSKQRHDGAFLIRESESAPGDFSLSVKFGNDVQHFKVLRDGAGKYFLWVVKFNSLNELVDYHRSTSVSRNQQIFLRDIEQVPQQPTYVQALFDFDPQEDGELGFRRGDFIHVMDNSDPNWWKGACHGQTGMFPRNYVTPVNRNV
In series [15] the target is SHP2-C SH2. The description is as above.
Series [16] has as its target c-Src SH2. The series is described as above.
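Throughout, for SH2 binding enrichment of the phosphorylated peptide, bacterial display: peptide library displayed on the E. coli surface as eCPX fusions, selected cells deep-sequenced, score is each peptide's frequency after selection divided by its frequency in the input.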
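Throughout, for phosphorylation enrichment, bacterial display: 11-residue human phosphosite peptides and single-mutation variants displayed on the E. coli surface, counted by deep sequencing, each peptide's frequency after selection divided by its frequency in the unselected input library; frequency after pTyr selection over input frequency; kinase dosed for 20-30% of maximal phosphorylation in three min.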

Chain of FGFR1 (P11362 whole entry, looked up): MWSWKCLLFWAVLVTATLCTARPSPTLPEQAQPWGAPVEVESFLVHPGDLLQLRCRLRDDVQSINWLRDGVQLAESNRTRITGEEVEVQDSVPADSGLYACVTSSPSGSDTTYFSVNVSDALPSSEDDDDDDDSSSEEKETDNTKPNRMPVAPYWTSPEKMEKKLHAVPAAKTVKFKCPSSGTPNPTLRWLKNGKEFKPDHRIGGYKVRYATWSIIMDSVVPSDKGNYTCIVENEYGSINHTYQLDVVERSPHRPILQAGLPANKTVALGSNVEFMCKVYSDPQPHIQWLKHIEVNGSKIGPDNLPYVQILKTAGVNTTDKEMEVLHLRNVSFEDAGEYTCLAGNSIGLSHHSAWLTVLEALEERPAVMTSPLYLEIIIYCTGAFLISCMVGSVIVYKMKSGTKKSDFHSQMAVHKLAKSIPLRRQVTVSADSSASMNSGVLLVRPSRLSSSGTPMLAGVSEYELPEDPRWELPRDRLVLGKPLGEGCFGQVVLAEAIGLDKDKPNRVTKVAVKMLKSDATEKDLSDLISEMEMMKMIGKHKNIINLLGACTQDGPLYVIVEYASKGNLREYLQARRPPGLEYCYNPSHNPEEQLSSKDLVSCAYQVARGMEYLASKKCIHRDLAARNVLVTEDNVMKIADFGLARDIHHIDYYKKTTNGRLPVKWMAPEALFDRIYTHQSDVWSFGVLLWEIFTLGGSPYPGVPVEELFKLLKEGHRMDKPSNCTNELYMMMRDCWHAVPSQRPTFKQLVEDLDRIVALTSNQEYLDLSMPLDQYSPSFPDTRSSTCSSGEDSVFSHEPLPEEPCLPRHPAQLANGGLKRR
Chain of EPHB2 (P29323 whole entry, looked up): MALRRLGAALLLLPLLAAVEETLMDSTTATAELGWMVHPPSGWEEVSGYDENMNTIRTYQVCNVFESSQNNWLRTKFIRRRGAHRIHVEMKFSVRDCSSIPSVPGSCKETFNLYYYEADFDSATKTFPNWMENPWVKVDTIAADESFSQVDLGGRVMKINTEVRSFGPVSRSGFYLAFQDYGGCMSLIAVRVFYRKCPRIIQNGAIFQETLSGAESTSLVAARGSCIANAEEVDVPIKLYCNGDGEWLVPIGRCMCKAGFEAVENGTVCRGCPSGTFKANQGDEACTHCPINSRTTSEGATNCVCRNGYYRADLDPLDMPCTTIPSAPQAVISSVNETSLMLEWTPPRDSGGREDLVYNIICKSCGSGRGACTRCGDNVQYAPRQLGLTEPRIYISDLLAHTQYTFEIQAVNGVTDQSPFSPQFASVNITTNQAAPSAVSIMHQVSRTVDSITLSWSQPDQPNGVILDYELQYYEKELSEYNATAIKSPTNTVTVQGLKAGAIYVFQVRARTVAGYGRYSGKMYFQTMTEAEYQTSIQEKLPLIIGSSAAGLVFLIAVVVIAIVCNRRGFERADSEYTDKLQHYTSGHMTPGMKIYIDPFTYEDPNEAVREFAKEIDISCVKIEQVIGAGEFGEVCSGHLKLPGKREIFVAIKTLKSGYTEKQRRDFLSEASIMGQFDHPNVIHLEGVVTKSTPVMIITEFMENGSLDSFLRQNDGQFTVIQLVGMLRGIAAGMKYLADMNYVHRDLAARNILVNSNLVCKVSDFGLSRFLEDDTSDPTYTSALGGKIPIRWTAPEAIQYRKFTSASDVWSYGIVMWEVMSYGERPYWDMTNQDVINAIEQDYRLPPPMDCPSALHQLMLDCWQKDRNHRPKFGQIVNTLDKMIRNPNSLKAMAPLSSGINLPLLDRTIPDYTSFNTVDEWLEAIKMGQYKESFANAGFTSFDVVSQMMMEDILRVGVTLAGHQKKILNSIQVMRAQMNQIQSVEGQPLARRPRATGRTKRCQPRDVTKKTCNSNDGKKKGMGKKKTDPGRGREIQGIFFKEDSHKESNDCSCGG
Chain of FGFR3 (P22607 whole entry, looked up): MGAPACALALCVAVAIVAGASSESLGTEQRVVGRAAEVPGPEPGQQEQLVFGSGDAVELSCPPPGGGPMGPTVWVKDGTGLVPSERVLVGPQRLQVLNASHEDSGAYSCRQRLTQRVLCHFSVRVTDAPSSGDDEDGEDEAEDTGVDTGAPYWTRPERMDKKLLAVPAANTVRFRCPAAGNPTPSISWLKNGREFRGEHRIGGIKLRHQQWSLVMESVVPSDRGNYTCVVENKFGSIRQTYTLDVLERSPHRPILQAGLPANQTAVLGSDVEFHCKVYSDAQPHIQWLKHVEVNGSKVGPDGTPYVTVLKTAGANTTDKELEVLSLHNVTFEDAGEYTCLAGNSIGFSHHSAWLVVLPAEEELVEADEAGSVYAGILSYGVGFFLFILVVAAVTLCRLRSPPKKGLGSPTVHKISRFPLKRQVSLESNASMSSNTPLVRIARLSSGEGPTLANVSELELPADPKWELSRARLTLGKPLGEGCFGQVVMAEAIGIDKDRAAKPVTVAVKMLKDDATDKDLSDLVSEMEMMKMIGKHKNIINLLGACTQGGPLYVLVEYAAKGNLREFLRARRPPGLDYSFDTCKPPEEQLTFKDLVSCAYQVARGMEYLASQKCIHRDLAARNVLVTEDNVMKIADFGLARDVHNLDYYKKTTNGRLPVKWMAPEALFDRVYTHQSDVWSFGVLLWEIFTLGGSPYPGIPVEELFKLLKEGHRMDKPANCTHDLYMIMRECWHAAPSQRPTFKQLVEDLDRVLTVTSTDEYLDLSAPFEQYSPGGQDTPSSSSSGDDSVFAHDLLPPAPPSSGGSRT
Chain of EPHB1 (P54762 whole entry, looked up): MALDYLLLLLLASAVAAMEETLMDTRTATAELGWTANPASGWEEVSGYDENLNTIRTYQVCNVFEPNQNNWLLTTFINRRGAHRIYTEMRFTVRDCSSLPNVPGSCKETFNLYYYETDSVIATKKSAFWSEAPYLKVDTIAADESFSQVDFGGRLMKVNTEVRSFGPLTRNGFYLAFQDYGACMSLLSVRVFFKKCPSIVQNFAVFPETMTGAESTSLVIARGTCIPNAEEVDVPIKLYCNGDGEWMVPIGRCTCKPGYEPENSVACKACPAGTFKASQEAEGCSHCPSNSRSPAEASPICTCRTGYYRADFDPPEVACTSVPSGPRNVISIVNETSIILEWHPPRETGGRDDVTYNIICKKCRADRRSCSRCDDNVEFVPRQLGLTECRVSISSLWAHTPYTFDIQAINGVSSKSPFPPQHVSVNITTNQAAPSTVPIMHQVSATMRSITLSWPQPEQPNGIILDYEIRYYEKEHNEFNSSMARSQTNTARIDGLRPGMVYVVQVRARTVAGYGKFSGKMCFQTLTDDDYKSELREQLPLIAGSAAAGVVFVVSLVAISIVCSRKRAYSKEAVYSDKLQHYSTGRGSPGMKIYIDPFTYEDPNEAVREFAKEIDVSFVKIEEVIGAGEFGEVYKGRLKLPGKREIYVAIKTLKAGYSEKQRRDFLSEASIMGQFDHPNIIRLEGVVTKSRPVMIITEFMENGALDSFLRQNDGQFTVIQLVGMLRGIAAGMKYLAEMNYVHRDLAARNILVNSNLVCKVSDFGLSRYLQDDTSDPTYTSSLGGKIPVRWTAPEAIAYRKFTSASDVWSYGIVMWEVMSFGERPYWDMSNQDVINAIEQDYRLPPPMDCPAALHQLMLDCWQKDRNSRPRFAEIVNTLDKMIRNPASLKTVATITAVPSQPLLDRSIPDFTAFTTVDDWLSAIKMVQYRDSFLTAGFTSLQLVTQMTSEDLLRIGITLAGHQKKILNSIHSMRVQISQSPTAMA

As for TNYRFYLRSLE [MTM1_Y71_L70F], the phosphorylation enrichment in series [1] is 1.19; in series [2], 0.619; in series [3], 0.532; in series [4] it was 0.438; in series [5], 0.855; in series [6] it was 0.421. The phosphorylation enrichment in series [7] came out at 1.18; in [8], 0.48; in [9], 0.558; in series [10] it was 1.09; in series [11], 0.423; in [12], 0.835. The phosphorylation enrichment in series [13] is 0.41. Further, the SH2 binding enrichment in [14] came out at 0.895; in series [15], 0.717; in [16], 0.495.
For the sequence FSCLPYRRLAF [SLC52A2_Y305_G306R_YF], the phosphorylation enrichment in [1] came to 0.992; in [2], 0.428; in [3] it was 0.589; in series [4], 0.478; in series [5], 0.568; in [6] it was 0.411. Besides, the phosphorylation enrichment in series [7] turned out to be 0.826; in [8] it was 0.559; in series [9], 0.432; in series [10] it was 0.806; in series [11] it was 0.531; in series [12], 0.63. The phosphorylation enrichment in series [13] worked out at 0.902. Besides, the SH2 binding enrichment in series [14] came out at 0.677; in series [15], 0.852; in series [16] it was 0.47.
Regarding FPHVISARLWR [SMAD4_Y95_Y95S], the phosphorylation enrichment in series [1] was 1; in series [2], 0.419; in series [3], 0.547; in series [4] it was 0.477; in series [5] it was 0.557; in series [6] it was 0.524. Moreover, the phosphorylation enrichment was 0.962 in series [7]; 0.581 in [8]; 0.429 in series [9]; 0.805 in series [10]; 0.458 in [11]; 0.701 in series [12]. The phosphorylation enrichment in series [13] was found to be 0.498. The SH2 binding enrichment was 1.11 in series [14], 1.08 in series [15] and 0.468 in series [16].
In the case of KPIETYFSKNF [PLP1_Y50_L46P_YF], the phosphorylation enrichment came out at 0.656 in series [1]; 0.506 in series [2]; 0.497 in series [3]; 0.417 in [4]; 0.555 in [5]; 0.379 in series [6]. The phosphorylation enrichment was 0.775 in series [7]; 0.544 in [8]; 0.436 in series [9]; 0.636 in series [10]; 0.465 in series [11]; 0.53 in series [12]. Moreover, the phosphorylation enrichment in [13] amounted to 0.44. Besides, the SH2 binding enrichment in series [14] was 0.663; in [15], 0.568; in series [16], 0.439.
In the case of RCFVFYFSFLL [PTEN_Y177_R173C_YF], the phosphorylation enrichment was found to be 0.59 in series [1]; 0.353 in series [2]; 0.434 in series [3]; 0.506 in [4]; 0.613 in series [5]; 0.432 in [6]. For the same sequence, the phosphorylation enrichment in [7] was determined as 0.626; in series [8], 0.355; in series [9], 0.426; in series [10], 0.821; in series [11], 0.38; in series [12], 0.732. Further, in [13], the phosphorylation enrichment is 0.591. In addition, the SH2 binding enrichment is 1.97 in series [14], 1.78 in [15] and 1.27 in series [16].
With QPGTDYKIFLF [FN1_Y1970_YF], the phosphorylation enrichment amounted to 2.09 in series [1]; 1.05 in [2]; 0.848 in series [3]; 1.17 in series [4]; 1.21 in series [5]; 0.899 in [6]. The phosphorylation enrichment is 2.44 in series [7]; 0.591 in series [8]; 0.924 in series [9]; 1.72 in series [10]; 0.673 in series [11]; 1.4 in series [12]. In series [13], the phosphorylation enrichment turned out to be 0.674. Besides, the SH2 binding enrichment in series [14] was 0.609; in series [15], 0.548; in [16] it was 0.4.
For RLLVLYPWTQR [HBB_Y36_V35L], the phosphorylation enrichment in [1] was 1.42; in series [2], 0.681; in series [3], 0.98; in series [4] it was 0.886; in series [5] it was 0.987; in series [6] it was 0.594. Also, the phosphorylation enrichment in series [7] was 1.26; in series [8], 0.791; in series [9], 0.782; in series [10], 0.702; in [11], 0.541; in [12], 0.558. Moreover, the phosphorylation enrichment in [13] was 0.366. Also, the figures for the SH2 binding enrichment in series [14], in [15] and in [16] were 1.77, 1.75 and 1.52, respectively.
For SSPMKYQQNVS [EGFEM1P_Y160], the phosphorylation enrichment worked out at 0.541 in series [1]; 0.319 in series [2]; 0.352 in series [3]; 0.334 in series [4]; 0.408 in series [5]; 0.392 in series [6]. Besides, the phosphorylation enrichment in series [7] came out at 0.592; in [8] it was 0.339; in series [9], 0.412; in [10] it was 0.623; in series [11] it was 0.398; in series [12], 0.562. For the same sequence, the phosphorylation enrichment in [13] came out at 0.397. In addition, the SH2 binding enrichment in series [14] was determined as 0.878; in series [15], 0.661; in series [16], 0.432.
